Measurements taken from article PMC5483177 (Cell reports, 2016).
Changes are numbered by the printed parent chain. Names and notes keep the numbering of the source. Read-outs that look alike come from different tables or passages of the source.

B1: CPS-6(H148A) (residues 63-305), His-tagged (enzyme, C. elegans, UniProt Q95NM6 63-305, looked up)
chain: PSRSAEIMKHGYPGFTNVRTYEDFVLSYDYKTRTAHWVCEHLTPERLKHAEGVDRKLCEFKPDITFPQKFLSQNTDYKCSGFDRGALAAAGNHRKSQLAVDQTFYLSNMSPQVGRGFNRDKWNDLEMHCRRVAKKMINSYIITGPLYLPKLEGDGKKYIKYQVIGDNNVAVPTHFFKVALFEVTPGKFELESYILPNAVIEDTVEISKFHVPLDAVERSAGLEIFARLDPKSIVKENGAKKGG
B2: wild-type CPS-6 (residues 63-305), His-tagged (enzyme, C. elegans, UniProt Q95NM6 63-305, looked up)
chain: B1 chain with A86H
B3: WAH-1 (residues 214 to 700), His-tagged (domain or fragment, C. elegans, UniProt Q9U229 214-700, looked up)
chain: SEQQSMKPSESTEENTTTTSADGLLHCEYVIIGSGTAAYYASLSIRAKQAEAKVLMIGEEPELPYNRPPLSKELWWYGDETSATKLAYTPLSGKKRDIFYEVDGFFVSPEDLPKAVHGGVALLRGRKAVKICEEDKKVILEDGTTIGYDKLLIATGVRPKKEQVFEEASEEAKQKITYFHYPADFKRVERGLADKSVQKVTIIGNGLLASELSYSIKRKYGENVEVHQVFEEKYPAEDILPEHIAQKSIEAIRKGGVDVRAEQKVEGVRKCCKNVVLKLSDGSELRTDLVVVATGEEPNSEIIEASGLKIDEKLGGVRADKCLKVGENVWAAGAIATFEDGVLGARRVSSWENAQISGRLAGENMATAAADGKSEGKAFWYQPSFFTKFAPHLHINAIGKCDSSLETVSVHAEPDKDTPLEKAVVFYKSKEDGSIVGVLLLNVFGPSLDVARRIIDDRKKVDEYKEIAKLFPLYDPVKSDEDDAKSA

Assays:
[1] = target: the molecule itself; experiment: SEC
[2] = target: B3; experiment: other fluorescence titration
[3] = target: the molecule itself; experiment: SEC; remark: listed apart in the source
[4] = target: B1; experiment: other fluorescence titration

## B1
[1]
  stoichiometry N: 2
[2]
  Kd: 69.8 ± 2.8 nM

## B2
[1]
  stoichiometry N: 2

## B3
[3]
  stoichiometry N: 2
[4]
  stoichiometry N: 1
